Measurements as given in patent publication US20210115138A1.

Legend:
[1] = target: human LAG-3 on cells (human) (UniProt P18627); assay: FACS on cell surface human LAG-3
[2] = target: human LAG-3 on cells (human) (UniProt P18627); assay: FACS affinity test on cell surface human LAG-3
[3] = target: human LAG-3 protein (Example 3) (human) (UniProt P18627); assay: ELISA; blocking of LAG-3 protein binding to LSECtin
[4] = target: human LAG-3 protein (Example 3) (human) (UniProt P18627); assay: FACS; blocking of LAG-3 protein binding to MHC-II on Raji cells
[5] = target: human LAG-3 protein (Example 3) (human) (UniProt P18627); assay: ELISA; blocking of LAG-3 protein binding to Galectin-3
[6] = target: human LAG-3 protein (Example 3) (human) (UniProt P18627); assay: SPR

human LAG-3 protein (Example 3) (human), sequence (P18627 23-450 limits assumed): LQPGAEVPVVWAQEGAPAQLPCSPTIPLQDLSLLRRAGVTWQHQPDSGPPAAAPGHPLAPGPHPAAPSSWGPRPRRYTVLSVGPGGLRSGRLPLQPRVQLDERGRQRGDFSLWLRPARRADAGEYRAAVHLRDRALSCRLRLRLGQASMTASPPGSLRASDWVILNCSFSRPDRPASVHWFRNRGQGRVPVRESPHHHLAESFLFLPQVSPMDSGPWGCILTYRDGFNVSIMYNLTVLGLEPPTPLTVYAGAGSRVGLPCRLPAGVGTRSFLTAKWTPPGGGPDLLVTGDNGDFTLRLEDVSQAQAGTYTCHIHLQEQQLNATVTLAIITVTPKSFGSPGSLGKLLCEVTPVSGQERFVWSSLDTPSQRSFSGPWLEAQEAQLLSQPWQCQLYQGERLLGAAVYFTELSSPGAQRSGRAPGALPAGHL
human LAG-3 on cells (human), sequence (P18627 23-525): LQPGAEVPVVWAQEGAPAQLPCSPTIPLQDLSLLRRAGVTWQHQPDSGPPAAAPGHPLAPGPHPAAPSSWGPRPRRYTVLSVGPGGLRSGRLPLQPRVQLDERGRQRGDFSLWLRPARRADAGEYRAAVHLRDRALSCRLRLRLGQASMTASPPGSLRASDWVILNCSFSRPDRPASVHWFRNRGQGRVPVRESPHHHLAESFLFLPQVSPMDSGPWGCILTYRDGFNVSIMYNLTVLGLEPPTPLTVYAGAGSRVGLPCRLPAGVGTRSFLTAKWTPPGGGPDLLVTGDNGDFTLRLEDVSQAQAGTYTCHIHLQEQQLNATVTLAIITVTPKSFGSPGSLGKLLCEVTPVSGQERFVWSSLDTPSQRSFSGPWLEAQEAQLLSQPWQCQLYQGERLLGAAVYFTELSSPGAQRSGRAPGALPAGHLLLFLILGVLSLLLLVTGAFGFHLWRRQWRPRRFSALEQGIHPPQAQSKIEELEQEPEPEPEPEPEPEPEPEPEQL

B1: BMK7 (antibody, INN chains, looked up, V domains shown)
VH: QVQLVESGGGVVQPGRSLRLSCVASGFTFSSYGMHWVRQAPGKGLEWVAIIWYDGSNKYYADSVKGRFTISRDNSKNTQYLQMNSLRAEDTAVYYCASVATSGDFDYYGMDVWGQGTTVTVSS
VL: EIVLTQSPATLSLSPGERTTLSCRASQRISTYLAWYQQKPGQAPRLLIYDASKRATGIPARFSGSGSGTGFTLTISSLEPEDFAVYYCQQRSNWPLTFGGGTKVEIK
What does the source list for B1?
EC50 [1]: 0.61 nM; Kd [2]: 0.58 nM; EC50 [3]: 0.59 nM; EC50 [4]: 1.25 nM; EC50 [5]: 0.79 nM; Kd [6]: 0.497 nM
